Experimental data reported in patent publication US20040121323, “Mrna binding motif” (published 2004).

Assays:
[1] = target: Grb7 PH-SH2 fragment (Homo sapiens, UniProt Q14451 Q14451:229-532); experiment: EMSA; conditions: tags: GST; label: 32P
[2] = target: T1, Grb14 SH2 domain (aa 426-540) (Homo sapiens, UniProt Q14449 Q14449:426-540); experiment: EMSA; conditions: tags: GST; label: 32P
T1 sequence: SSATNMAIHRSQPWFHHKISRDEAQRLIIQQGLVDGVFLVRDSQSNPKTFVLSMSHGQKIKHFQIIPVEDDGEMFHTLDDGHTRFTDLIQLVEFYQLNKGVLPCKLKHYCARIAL

Grb7 PH-SH2 fragment, sequence (Q14451 229-532, one chain of several): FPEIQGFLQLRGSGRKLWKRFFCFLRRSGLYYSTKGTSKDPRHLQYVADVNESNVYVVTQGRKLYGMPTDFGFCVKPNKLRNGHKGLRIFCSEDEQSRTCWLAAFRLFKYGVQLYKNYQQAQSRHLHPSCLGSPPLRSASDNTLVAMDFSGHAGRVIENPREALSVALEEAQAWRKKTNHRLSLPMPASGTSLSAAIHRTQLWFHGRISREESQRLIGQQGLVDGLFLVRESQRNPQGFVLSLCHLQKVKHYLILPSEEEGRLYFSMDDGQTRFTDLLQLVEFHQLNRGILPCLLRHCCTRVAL

B1: erbB-2 3'-UTR U-rich probe (ssRNA)
RNA: UUUGUACAGAGUGCUUUUCUGUUUAGUUUUUACUUUUUUUGUUUUGUUUUUUUAAAGACGAAAUAAAGA
- binding result [1]: binds
- binding result [2]: binds
